# Measured values published in patent publication US9347942B2, “Ultrasensitive cell based sensors and uses thereof” (CANVAX BIOTECH SL, priority 2010, dated 2016).
# FAM = fluorophore of the FRET substrate
# Experiments:
# human granzyme B [1] = molecular target: T1, human granzyme B (Homo sapiens, UniProt P10144); experiment: Direct detection of secreted granzyme B with peptide substrates (Example 10); format: biochemical; conditions: for signal to background: ionomycin 10 uM
# T1 construct: expressed in transfected cells; host or cells: supernatant of RBL-2H3 stably transfected with human granzyme B, treated with ionomycin
# T1 sequence (P10144 21-247): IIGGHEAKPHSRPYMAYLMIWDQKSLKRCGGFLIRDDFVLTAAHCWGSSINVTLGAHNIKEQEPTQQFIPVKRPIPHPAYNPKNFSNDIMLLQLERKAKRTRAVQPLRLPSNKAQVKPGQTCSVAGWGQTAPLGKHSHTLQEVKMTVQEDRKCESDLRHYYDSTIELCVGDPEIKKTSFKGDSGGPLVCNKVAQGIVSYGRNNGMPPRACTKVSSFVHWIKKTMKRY
# Procedure: Human granzyme B was used as a model enzyme. […] Cleavage of FAM-TAMRA labelled peptide was detected by fluorescence using excitation at 485 nm and emission at 535 nm and labelled peptide at 1 uM final concentration.
# For each substrate the exocytosis of 50.000, 25.000, 12.500, 6.250, 3.125, 1560, 780 and 390 cells was analysed. Cells were seeded the night before experiment at the above densities in 96 well plates using 100 uL of complete cell culture medium per well. The day of experiment cells were washed with HBSS buffer and exocytosis was initiated by addition of ionomycin at 10 uM final concentration in HBSS buffer and incubation for 60 minutes at 37 Celsius degrees. Controls of cells treated with HBSS buffer only were included for basal release determination. Five replicas of each cell density for each substrate were seeded. Supernatant from cells were centrifuged at 400 g for 5 minutes and used for fluorescence determination in 96 well plates. Released AMC was measured by excitation at 360 nm and emission at 460 nm in a BMG Labtech microplate fluorimeter in 96 well microplates while released FAM was measured by excitation at 485 nm and emission at 535 nm in the same reader. Microplates were incubated at 37 Celsius degrees on the reader and were kinetically read at 0, 15, 30, 45 and 60 minutes. Control wells with substrate only in HBSS buffer were included to subtract autofluorescence of substrates to both cells treated with ionomycin and to cells treated with HBSS buffer only. An arbitrary signal to background of about two was selected as sensitivity.
# RBL-2H3 cells [2] = experiment: Ionomycin-induced release of granule stored protease reporters from stable cell lines (Example 5); format: cell-based, Rat; conditions: stable RBL-2H3, 10 uM ionomycin 1 hour, supernatant equivalent to 100.000 cells, AMC substrate
# Excerpt: As either tryptase-like enzymes, chymase-like enzymes, elastase-like enzymes or asp-ase like enzymes are useful for the methods of the present invention we selected human granzyme A (tryptase-like enzyme); human granzyme B (Asp-ase-like enzyme); human chymase (chymase-like enzyme) and human proteinase 3 (elastase-like enzyme) for further examples. Vectors were developed for stable expression of human granzyme A, human granzyme B, human chymase and human proteinase 3 under the control of hCMV-MoMLV5′LTR chimeric promoter. A hygromycin resistance cassette was included in the vector backbone for selection of stable populations of cells. The vector also included an IRES-NGFR cassette cloned downstream of granule stored protease reporter and thus, under the control of hCMV-MoMLV5′LTR promoter for flow cytometry and/or selection by MACS of stable cells expressing either human granzyme A or human granzyme B or human chymase or human proteinase 3. Each vector was individually electroporated using a microporator (Digital Bio Technology, South Korea) into RBL-2H3 and after 48 hours hygromycin at 1500 ug/mL was added to culture for selection. After selection for about 2 weeks cells were analysed by flow cytometry (Guava Technologies, USA) with an antibody against NGFR coupled to FITC. Positive population where magnetically separated by MACS using anti-NGFR-MACS sup.R (Miltenyi Biotec, Germany). Sorted populations were again analysed again by flow cytometry to check the sorting efficiency. Percentage of NGFR positive cells was always higher than 65 percent. Cells were seeded the night before experiment in 24 well microplates at 650.000 cells per well in 800 microliters of complete cell culture medium. Next day cells were washed with HBSS buffer and were treated with 10 uM ionomycin for 1 hour at 37 Celsius degrees in 200 uL of HBSS buffer and after centrifugation at 400 g for 5 minutes supernatants were analysed for activity with specific fluorescent substrates. Controls of cells incubated with HBSS buffer only were included. Fluorescent substrates were: VANR-AMC for granzyme A; PEEI-AMC for human neutrophil elastase; PTSY-AMC for human chymase; VADC-AMC for human proteinase 3 and IEPD-AMC for human granzyme B. Released AMC was measured by excitation at 360 nm and emission at 460 nm in a BMG Labtech microplate fluorimeter in 96 well microplates using 125 microliters of supernatant and 125 microliters of specific substrate at 400 micromol per liter in HBSS buffer. Microplates were incubated at 37 Celsius degrees on the reader and were kinetically read at 0, 15, 30, 45 and 60 minutes. Control wells with substrate only in HBSS buffer were included to subtract autofluorescence of substrates to both cells treated with ionomycin and to cells treated with HBSS buffer only. Autofluorescence of peptide substrates in HBSS buffer was about 3000 while fluorescence of cells treated with HBSS buffer only for 60 minutes at 37 Celsius degrees was about 5000, that is basal release in the absence of exocytosis modulator was about 2000. In contrast, fluorescence of ionomycin-induced release of human granzymes A and B was about 20.000 for a signal to background of 10 when using the supernatant equivalent to 100.000 cells; fluorescence of ionomycin-induced release of human chymase was about 30.000 for a signal to background of 15 when using the supernatant equivalent to 100.000 cells and fluorescence of ionomycin-induced release of human proteinase 3 was about 12.000 for a signal to background of 6 when using the supernatant equivalent to 100.000 cells. Thus, tryptase-like enzymes, chymase-like enzymes, elastase-like enzymes or asp-ase like enzymes can be stably expressed into granules of hemopoyetic cells with professional regulated exocytosis and such granule stored proteases are released by exocytosis modulators to produce sensors with good signal to background ratios using specific AMC-coupled peptide substrates. […]
# RBL-2H3 cells [3] = experiment: Ionomycin-induced release of granzyme B from different species, stable cell lines (Example 6); format: cell-based, Rat; conditions: 100.000 cells per well, 10 uM ionomycin 1 hour, IEPD-AMC
# Excerpt: This experiment was designed to test if granule stored protease reporters from other species different from human could be used for the methods of the present invention. As an example we selected granzyme B from different species. Vectors were developed for expression of human, rat, horse and chimpanzee granzyme B and RBL-2H3 cells were individually transfected with the plasmids comprising the chimeric promoter of hCMV-MoMLV5′LTR-GranzymeB-IRES-NGFR with hygromycin resistance for stable transfections. Each vector was individually electroporated using a microporator (Digital Bio Technology, South Korea) into RBL-2H3 and after 48 hours hygromycin at 1500 ug/ml_was added to culture for selection. After selection for about 2 weeks cells were analysed by flow cytometry (Guava Technologies, USA) with an antibody against NGFR coupled to FITC. Positive population where magnetically separated by MACS using anti-NGFR-MACS sup.R (Miltenyi Biotec, Germany). Sorted populations were again analysed again by flow cytometry to check the sorting efficiency. Percentage of NGFR positive cells was always higher than 65 percent. Cells were seeded the night before experiment in 96 well microplates at 100.000 cells per well in 100 microliters of medium. Next day cells were washed with BSS buffer and were treated with 10 uM ionomycin for 1 hour at 37 Celsius degrees in 105 uL of HBSS buffer and after centrifugation at 400 g for 5 minutes supernatants were analysed for activity with specific fluorescent substrates. Controls of cells incubated with HBSS buffer only were included. Fluorescent substrate was IEPD-AMC for all granzymes B tested. Released AMC was measured by excitation at 360 nm and emission at 460 nm in a BMG Labtech microplate fluorimeter in 96 well microplates using 105 microliters of supernatant and 145 microliters of specific substrate at 345 micromol per liter in HBSS buffer. Microplates were incubated at 37 Celsius degrees on the reader and were kinetically read at 0, 15, 30, 45 and 60 minutes. Control wells with substrate only in HBSS buffer were included to subtract autofluorescence of substrates to both cells treated with ionomycin and to cells treated with HBSS buffer only.
# human granzyme B [4] = molecular target: T1, human granzyme B; experiment: Procaspase-3 zymogen activation by secreted granzyme B, DEVD-AMC readout (Example 11); format: biochemical
# Excerpt: As a model we selected human granzyme B. A human granzyme B activated-zymogen was developed from human native unmodified procaspase-3 (huCasp3) and from a mutated human procaspase-3 (mut-huCasp3) where the amino acids from 172 to 179 has been changed from […]to […] that is Threonine at 174 has been mutated to Proline because IEPD is a better granzyme B substrate than IETD and serine at 176 has been mutated to valine, glycine at 177 has been mutated to leucine, valine at 178 has been mutated to methionine and aspartic acid at 179 has been mutated to glutamic acid in order to both improve cleavage efficiency by human granzyme B and to reduce autoactivation of procaspase-3. cDNA from both variants of human pro-caspase-3 comprising amino acids from Serine at 29 to Aspartic acid at 192 were cloned into pET43a+ vector from Novagen. After sequencing expression vectors were transformed into BL21 DE3pLys E. coli strain for protein expression. Each protein was cloned with a polyhistidine tag at C-terminal end for purification. Human native procaspase-3 (huCasp3) was induced for only 30 minutes to prevent autoactivation, while mutated procaspase-3 (mut-huCasp3) was induced both for 30 minutes and for 2 hours. DEVD-AMC substrate was used for detection of active caspase-3 with excitation at 360 nm and emission at 460 nm. A supernatant equivalent to 15.000 RBL-2H3 stably transfected with human granzyme B treated with 10 uM ionomycin for 60 minutes was used for zymogen activation. Human granzyme B activity of such supernatant when measured with IEPD-AMC produced a signal to background of 2.6 after incubation for 60 minutes at 37 Celsius degrees using a supernatant equivalent to 25.000 cells. Background of fluorescence of DEVD-AMC substrate was 2775 and was subtracted from both granzyme B treated caspase-3 and non-granzyme B treated caspase-3 (caspase-3 only) used as control and all samples were tested by triplicate.
molecule,measurement,setting,value
"FAM-Ser-Ile-Glu-Pro-Asp-Ser-Gly-Ser-TAMRA ({FAM}-SIEPDSGS-{TAMRA}) [FAM-TAMRA peptide, custom designed FRET based granzyme B substrate]",signal to background,human granzyme B [1]; 390 cells,< 2
same,signal to background,human granzyme B [1]; 780 cells,3
same,times more sensitive for detection of granzyme B than IEPD-AMC peptide,human granzyme B [1]; sensitivity taken as 780 cells,more than 30 times
"Human granzyme B: Asp-ase-like serine protease (GZMB, NM_004131) used as granule stored reporter",fluorescence of ionomycin-induced release,RBL-2H3 cells [2],about 20.000
same,signal to background,RBL-2H3 cells [2],10
same,Fluorescence of supernatant from cells treated with ionomycin,RBL-2H3 cells [3],"20,000"
same,signal to background,RBL-2H3 cells [3],10
"Rat granzyme B: Granzyme B of rat (NM_138517) used as granule stored reporter (protein, UniProt P18291 21-248, looked up) Granzyme B: IIGGHEAKPHSRPYMAYLQIMDEYSGSKKCGGFLIREDFVLTAAHCSGSKINVTLGAHNIKEQEKMQQIIPVVKIIPHPAYNSKTISNDIMLLKLKSKAKRSSAVKPLNLPRRNVKVKPGDVCYVAGWGKLGPMGKYSDTLQEVELTVQEDQKCESYLKNYFDKANEICAGDPKIKRASFRGDSGGPLVCKKVAAGIVSYGQNDGSTPRAFTKVSTFLSWIKKTMKKS",Fluorescence of supernatant from cells treated with ionomycin,RBL-2H3 cells [3],"22,000"
same,signal to background,RBL-2H3 cells [3],11
"Native (unmodified) huCasp-3: human native unmodified procaspase-3 zymogen expressed in E. coli with polyhistidine tag (protein, UniProt P42574 1-277, looked up, pro-form polyhistidine tag, human native unmodified procaspase-3 zymogen expressed in E. coli with polyhistidine tag) pro-form: MENTENSVDSKSIKNLEPKIIHGSESMDSGISLDNSYKMDYPEMGLCIIINNKNFHKSTGMTSRSGTDVDAANLRETFRNLKYEVRNKNDLTREEIVELMRDVSKEDHSKRSSFVCVLLSHGEEGIIFGTNGPVDLKKITNFFRGDRCRSLTGKPKLFIIQACRGTELDCGIETDSGVDDDMACHKIPVEADFLYAYSTAPGYYSWRNSKDGSWFIQSLCAMLKQYADKLEFMHILTRVNRKVATEFESFSFDATFHAKKQIPCIVSMLTKELYFYH",times more sensitive than direct detection of secreted granzyme B with IEPD-AMC,human granzyme B [4]; 15.000 cells versus 25.000 cells,about 1.7 times
same,Fluorescence of Caspase-3 only,"human granzyme B [4]; no granzyme B, DEVD-AMC, background 2775 subtracted",15775
same,signal to background (S/B),"human granzyme B [4]; supernatant equivalent to 15.000 cells, DEVD-AMC",2.8
same,Fluorescence of caspase-3 treated with granzyme B,"human granzyme B [4]; supernatant equivalent to 15.000 ionomycin treated cells, DEVD-AMC, background 2775 subtracted",43548
